B1: PRAMEX1 (Prame like, X-linked 1) (natural protein, mouse (endogenous in testis), UniProt F7ADI6 1-462, looked up)
chain: MDERDPSSLLDLAIQSLLSNELVAIHSLGEIPRELFVPLFSAAFTGGYRKILTSMVKIWPFTCLHIGTLSVQEPQRELLKAMVESLQFLPAQDCSSGGPKLRILDVRQGVDCKTTCPDFGARSPTCFHGCTHSVHSILKLESQYSIVDLKPESQSAIQPMELLVDLSLDGTLREREFFALLLNKVQQSSGSLHLCCRDLQIDRFSYAKNALKFLDLTCIQNLTVDQASLSEVTTLLARMIYLDSLSLSKITYRSLHGKVFRVFLNYLGRMNCLKELNLSSFSLTDHLDSLLRALPPNLDFLYLPFCEISYRDLKFLSQSAQATHLKLLNLSNNPMYWDDCGPFQTLLQKLSDTLQHLAINHCHLTDAILSAILPALSKCSHLRVISFVSNPISMPMLLKILHYLTPLMELKYVIYPIPIHCYEQWQFHGRLDRQKLTDVQAQLKAMLQAAKRSDMNWITYSQ
notes: PRAMEX1 (Prame like, X-linked 1), mouse, endogenous in testis; band of about 56 kDa; Endogenous protein of C57BL/6 mouse testis; no recombinant construct; source: endogenous, mouse P7 testis protein extract
B2: Retinoic acid receptor alpha (RARα) (natural protein, mouse (endogenous in testis), UniProt P11416 1-462, looked up)
chain: MASNSSSCPTPGGGHLNGYPVPPYAFFFPPMLGGLSPPGALTSLQHQLPVSGYSTPSPATIETQSSSSEEIVPSPPSPPPLPRIYKPCFVCQDKSSGYHYGVSACEGCKGFFRRSIQKNMVYTCHRDKNCIINKVTRNRCQYCRLQKCFDVGMSKESVRNDRNKKKKEAPKPECSESYTLTPEVGELIEKVRKAHQETFPALCQLGKYTTNNSSEQRVSLDIDLWDKFSELSTKCIIKTVEFAKQLPGFTTLTIADQITLLKAACLDILILRICTRYTPEQDTMTFSDGLTLNRTQMHNAGFGPLTDLVFAFANQLLPLEMDDAETGLLSAICLICGDRQDLEQPDKVDMLQEPLLEALKVYVRKRRPSRPHMFPKMLMKITDLRSISAKGAERVITLKMEIPGSMPPLIQEMLENSEGLDTLSGQSGGGTRDGGGLAPPPGSCSPSLSPSSHRSSPATQSP
notes: Retinoic acid receptor alpha, mouse, endogenous in testis; band of 52 kDa; Endogenous protein of C57BL/6 mouse testis; source: endogenous, mouse P7 testis protein extract

How the values were obtained:
[1] = molecular target: B2; test: co-IP; anti-PRAMEX1 or anti-RARα antibody immobilised on protein A/G magnetic beads (Pierce Crosslink Magnetic IP/co-IP Kit); P7 testis proteins of WT, Pramex1 sKO and Pramel1 sKO mice, overnight at 4 °C; Western blot, band intensity relative to input (set as 1), n = 3; conditions: partners not purified
[2] = molecular target: B1; test: as above; conditions: partners not purified

| Binder | band intensity in the RARα co-IP relative to input, Pramel1 sKO testis [1] | band intensity in the RARα co-IP relative to input, WT testis [1] | band intensity in the PRAMEX1 precipitation relative to input, Pramel1 sKO testis [2] | band intensity in the PRAMEX1 precipitation relative to input, WT testis [2] |
| --- | --- | --- | --- | --- |
| B1 | 3.32 fold | 1.3 fold |  |  |
| B2 |  |  | 2.48 fold | 1.5 fold |

— publication PMC10893636, “Synergistic enhancement of the mouse Pramex1 and Pramel1 in repressing retinoic acid (RA) signaling during gametogenesis” (Cell & Bioscience, 2024)
